Source: the supplement of paper PMC10126150
± gives the standard deviation of the averaged measurements.

Test system: ATP
Assay: switch fluorescence ratio, 500 uM ATP over buffer (Cy3 cluster intensity, sum of 5 cycles each) (fold (ratio)); higher = stronger signal-on switching upon ATP binding; sequences stand for … in TCGTCGGCAGCGTCAGATGTGTATAAGAGACAGTTTTTTTTTTTTTTTTTTTTTTTTT…TC
Conditions: aptamer strand: ATP DNA aptamer (quencher-CACCTGGGGGAGTATTGCGGAGGAAGG + anchor), 100 nM annealed; ATP concentration: 500 uM
Summary of the method: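 Exposure to 500 uM ATP lasted 15 min at 22 °C before imaging, and a selection-buffer image was taken beforehand, for Cy3-labelled switching-strand clusters on a modified Illumina MiSeq flow-cell annealed to 100 nM quencher-labelled ATP aptamer. Five buffer/ATP cycles were run with NaOH stripping and re-annealing between them. The fluorescence ratio per cluster is summed target-cycle over summed buffer-cycle Cy3 intensity, averaged per switch-domain sequence. Clusters outside 100-1000 RFU were excluded.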

| Sequence | switch fluorescence ratio |
| --- | --- |
| AGGGTTCGGG | 1.01 ± 0.031 |
| AGGGTTGCGC | 1.02 ± 0.019 |
| AGGGTTGGGG | 0.991 ± 0.031 |
| AGGGTTGTCG | 0.99 ± 0.023 |
| AGGGTTTCCG | 1.03 ± 0.038 |
| AGGGTTTGGT | 0.982 ± 0.02 |
| AGGTAAAGGG | 0.996 ± 0.04 |
| AGGTAAATGT | 0.972 ± 0.023 |
| AGGTAAATTC | 2.33 ± 0.63 |
| AGGTAAATTG | 1.01 ± 0.015 |
| AGGTAACTGG | 1.001 ± 0.00096 |
| AGGTAATATG | 0.9867 ± 0.0081 |
| AGGTAATCAT | 1.01 ± 0.05 |
| AGGTAATGTT | 1.01 ± 0.021 |
| AGGTAGAAGT | 1.03 ± 0.012 |
| AGGTAGATAA | 0.99834 ± 0.00052 |
| AGGTAGGGCT | 1 ± 0.029 |
| AGGTAGGGGA | 1.01 ± 0.041 |
| AGGTAGGTCC | 0.998 ± 0.022 |
| AGGTAGGTTC | 0.995 ± 0.019 |
| AGGTAGTATT | 1.04 ± 0.012 |
| AGGTATCCCT | 1.01 ± 0.022 |

| Sequence | switch fluorescence ratio |
| --- | --- |
| AGGTATGTTT | 1 ± 0.068 |
| AGGTATTGCT | 0.9854 ± 0.0091 |
| AGGTCAGGTG | 3.06 ± 0.33 |
| AGGTCAGTTA | 0.998 ± 0.028 |
| AGGTCCAGGT | 1.262 ± 0.0015 |
| AGGTCCCAGC | 1 ± 0.02 |
| AGGTCCCGTT | 0.993 ± 0.036 |
| AGGTCGGTGG | 1.07 ± 0.11 |
| AGGTCTATTT | 1.008 ± 0.0024 |
| AGGTCTGGGC | 0.978 ± 0.074 |
| AGGTCTGTGG | 0.982 ± 0.04 |
| AGGTGAAAGT | 0.983 ± 0.029 |
| AGGTGAAGCC | 1.01 ± 0.038 |
| AGGTGACGG | 0.993 ± 0.058 |
| AGGTGACTCG | 1.04 ± 0.017 |
| AGGTGAGGGG | 0.99 ± 0.022 |
| AGGTGATTCT | 1.04 ± 0.025 |
| AGGTGCGGAA | 1.0109 ± 0.00064 |
| AGGTGCGGGG | 1.01 ± 0.042 |
| AGGTGGCGTC | 1.03 ± 0.027 |
| AGGTGGGGGG | 1.01 ± 0.043 |
| AGGTGGGTTG | 1.01 ± 0.055 |

| Sequence | switch fluorescence ratio |
| --- | --- |
| AGGTGTGGGT | 1.01 ± 0.037 |
| AGGTGTTCGG | 0.976 ± 0.019 |
| AGGTGTTTAC | 1.01 ± 0.011 |
| AGGTTAAAAC | 1.2 ± 0.19 |
| AGGTTAAAGG | 1 ± 0.016 |
| AGGTTAAGAC | 0.99 ± 0.044 |
| AGGTTAAGGT | 1.01 ± 0.02 |
| AGGTTAATTT | 1.01 ± 0.046 |
| AGGTTAGGGG | 0.998 ± 0.037 |
| AGGTTAGTGT | 0.9584 ± 0.001 |
| AGGTTATAGT | 1.03 ± 0.051 |
| AGGTTCAGTC | 1.02 ± 0.022 |
| AGGTTCCTGT | 0.9944 ± 0.0091 |
| AGGTTCGGCG | 1 ± 0.015 |
| AGGTTCGTAT | 1.01 ± 0.03 |
| AGGTTCTTTG | 0.974 ± 0.026 |
| AGGTTGAAAA | 0.963 ± 0.032 |
| AGGTTGATGG | 0.954 ± 0.043 |
| AGGTTGGAGA | 0.992 ± 0.023 |
| AGGTTGGAGG | 0.976 ± 0.018 |
| AGGTTGGAGT | 1.02 ± 0.04 |
| AGGTTGTGGT | 1.01 ± 0.016 |

| Sequence | switch fluorescence ratio |
| --- | --- |
| AGGTTGTTAT | 0.969 ± 0.013 |
| AGGTTTAGAC | 1.01 ± 0.021 |
| AGGTTTAGGG | 1.03 ± 0.034 |
| AGGTTTAGTT | 0.993 ± 0.0065 |
| AGGTTTATGT | 1.0099 ± 0.00068 |
| AGGTTTATTG | 0.993 ± 0.0097 |
| AGGTTTGCGG | 1.011 ± 0.0037 |
| AGGTTTGGAC | 1.09 ± 0.17 |
| AGGTTTGGGG | 1.04 ± 0.033 |
| AGGTTTGTGA | 0.995 ± 0.029 |
| AGGTTTTAGT | 1.013 ± 0.005 |
| AGGTTTTTAA | 1.01 ± 0.043 |
| AGGTTTTTGC | 1.02 ± 0.02 |
| AGGTTTTTGT | 0.982 ± 0.036 |
| AGGTTTTTTT | 0.993 ± 0.017 |
| AGTAAAATAG | 0.968 ± 0.017 |
| AGTAAATTCT | 0.9887 ± 0.0015 |
| AGTAAGGGTT | 1 ± 0.048 |
| AGTAATGGGA | 1.06 ± 0.064 |
